Source: US20050221381A1, “Method for isolating ligands” (priority 2002, published 2005)
Read-outs that look alike come from different tables or passages of the source.

Key:
[1] = system: PBMC (CD4 and CD8 positive T-cell compartments); assay: Intracellular IFN-γ staining combined with surface staining for CD4, CD8, CD69 (FACS); type: cell-based, human; details: donor 10687, peptide 80 μg/ml (FIG. 11)
Method: To distinguish between CD8-positive CTL mediated or CD4-positive HTL mediated reactivity, intracellular cytokine staining combined with staining for surface markers was performed: after thawing, PBMNC were kept overnight (37° C., 5% CO2) in RPMI1640 with 10% human serum type AB (BioWhittaker). Next day aliquots of 2 million PBMNC were incubated with peptide (80 μg/ml) or Concanavalin A (SIGMA). After 1 h, 10 μg/ml brefeldin A (SIGMA) were added and incubation was continued for 5 hours. Surface staining for CD4 (phycoerythrin), CD8 (cychrome), CD69 (allophycocyanine) was done with antibodies labelled as indicated (Pharmingen, San Diego, Calif., USA). After fixation with 1% para-formaldehyde in PBS, cells were permeabilized by incubating for 15 min in 0.5% BSA/0.1% Na-azide/0.1% saponin in PBS. Intracellular cytokines were stained with anti-IFN-γ (FITC) antibody 4S.B3 (Pharmingen). Samples (100,000 events in the lymphocyte gate) were read on a FACScalibur (Becton Dickinson).
FIG. 11: Confirmation of simultaneous CD4+ and CD8+ T-cell responses against CMVpp65 15mers 469, 470 by intracellular IFN-γ staining. PBMC from 2 donors (10687, 10788) were stimulated with either ConA as positive control (1st column), 15mers containing both putative class I and class II epitopes (columns 2 and 3) or medium as negative control (right column). Cells were stained for intracellular IFN-γ (x-axis) or surface the T-cell differentiation markers CD4 or CD8 (y-axis). Percentage in upper-right quadrant is indicated, numbers significant over background are shown boldface.

[2] = target: DRB1*0701 (Homo sapiens, UniProt P01903+P01911, A100R/A102G/A103Q/D57E/D86V/E43K/F76Y/K127E/L162R/M171V/P40G/Q125H/Q99D/R33Q/R42Y/R54Q/S133A/S66F/T210M/V115G/Y107V/Y59L/Y89S); assay: Peptide-competition assay with biotinylated CLIP peptide (ELISA); type: binding; design: key: −: no binding/T cell response; +/−: weak binding/T cell response; +: intermediate binding/T cell response; ++: strong binding/T cell response; details: DRB1*0701
[3] = target: DRB1*1101 (Homo sapiens, UniProt P01903+P01911, A100R/A169T/A87E/I96F/K41T/L162R/M171V/P40S/Q125H/Q178H/Q39Y/Q99D/R42S/S66Y/T262R/V115G/W38E); assay: as above; type: binding; design: key: −: no binding/T cell response; +/−: weak binding/T cell response; +: intermediate binding/T cell response; ++: strong binding/T cell response; details: DRB1*1101
[4] = system: DRB1*0401, DRB1*0101, DRB1*0404, DRB1*0701 and DRB1*1101; assay: Binding to soluble HLA molecules of different allels (promiscuity); design: species or system human
Method: In peptide binding reactions HLA molecules were used in a concentration of 0.5 μM, and each single peptide was added in 10-fold molar excess (5 μM) if not mentioned differently. […] The reaction was performed in PBS buffer (pH 7.4) at room temperature for 48 hours in the presence of a protease inhibitor cocktail (Roche) and 0.1% octyl-b-D-glucopyranoside (Sigma).
Peptide binding was evaluated in an SDS-stability assay (Gorga et al., 1987): trimeric HLA class II ab-peptide complexes are resistant to SDS and consequently appear as ˜60 kDa band in SDS-PAGE Western blot analysis. Individual HLA class II α and β chains not stabilized by a peptide binding with intermediate to high affinity migrate as ˜35 kDa and ˜30 kDa bands, respectively.
The binding affinities to DRB1*0701 and DRB1*1101 were tested by a peptide-competition assay (Reay et al., 1992). Briefly, binding of the biotinylated CLIP peptide (reference peptide) has been used for monitoring of HLA:peptide complex formation. […] In the case of lower affinity peptides they should be added in excess to the reference peptide to compete for occupancy of HLA binding grove. […] Alternatively, comparing of the amount of reference peptide bound to HLA molecules in the presence or absence of competitor peptide one can determine the binding activity of the peptide of interest.
In the present peptide-competition assay conditions of peptide binding were similar to described above. Soluble HLA molecules were used in the concentration of 0.5 μM and biotinylated CLIP was added to all samples in the final concentration of 2 μM. Competitor peptides were added in three different concentrations: 0.25, 5 and 100 μM. Binding reaction was performed in PBS buffer (pH 7.4) for 18 hours at 37° C. […] Briefly, MaxiSorb 96-well plates (Nunc, Denmark) were coated with mouse anti-αβ antibody L243 (purified from ATCC HB-55) by overnight incubation with 50 μl of 10 μg/ml dilution in PBS at 4° C. Non-specific binding to the plastic was blocked by incubation with T-PBS containing 3% of BSA for 2 hours at 37° C. and binding reactions were then “captured” for 2 hours at room temperature. […] The optical density at 405 nm was measured on a microplate reader SUNRISE (Tecan).
Some of the identified DRB1*0401 binding peptides, as well as others chosen by prediction algorithms were also tested for binding to soluble HLA molecules of different allels: DRB1*0101, DRB1*0404, DRB1*0701 and DRB1*1101 (Table 3).

[5] = target: T1, soluble DRB1*0401 molecules (DR4) (Homo sapiens, UniProt P01903+P01911, A100K/A169T/F76Y/I96L/K127E/L162R/M171V/N62H/P40V/Q125Y/R42H/S133A/S149N/S66Y/V115G/V209L/W38E); type: binding; design: key: −: no binding; +/−: weak binding; +: intermediate binding; ++: strong binding; details: individual pp65 15mer, SDS-stability assay
T1 construct: Soluble HLA class I A*0201 and HLA class II DRA1*0101/DRB1*0101/Ii, DRA1*0101/DRB1*0401/Ii and DRA1*0101/DRB1*0404/Ii molecules were expressed in SC-2 cells; made in house; host or cells: SC-2 cells

[6] = system: CD4+ T cells; details: healthy, CMV-exposed human subjects; partially or fully identical sequences; cited from earlier work
[7] = target: T1, soluble DRB1*0401 molecules (DR4); type: binding; design: key to Binding to DRB1 *0401: −: no binding/T cell response; +/−: weak binding/T cell response; +: intermediate binding/T cell response; ++: strong binding/T cell response; details: soluble DRB1*0401 molecules
[8] = target: T2, soluble DRB1*0404 molecules (Homo sapiens, UniProt P01903+P01911, A100R/A169T/F76Y/I96L/K127E/L162R/M171V/N62H/P40V/Q125Y/R42H/S133A/S149N/S66Y/V209L/W38E); assay: Peptide binding assay, SDS-stability assay; design: key: −: no binding/T cell response; +/−: weak binding/T cell response; +: intermediate binding/T cell response; ++: strong binding/T cell response; details: soluble DRB1*0404 molecules
T2 construct: Soluble HLA class I A*0201 and HLA class II DRA1*0101/DRB1*0101/Ii, DRA1*0101/DRB1*0401/Ii and DRA1*0101/DRB1*0404/Ii molecules were expressed in SC-2 cells; made in house; host or cells: SC-2 cells

[9] = target: T3, soluble DRB1*0101 molecules (Homo sapiens, UniProt P01903+P01911, A100R/D57E/F55L/F60I/F76Y/I96L/L162R/M171V/P40L/Q125E/R42F/V115G/Y59C); assay: Peptide binding assay, SDS-stability assay; design: key: −: no binding/T cell response; +/−: weak binding/T cell response; +: intermediate binding/T cell response; ++: strong binding/T cell response; details: soluble DRB1*0101 molecules
T3 construct: Soluble HLA class I A*0201 and HLA class II DRA1*0101/DRB1*0101/Ii, DRA1*0101/DRB1*0401/Ii and DRA1*0101/DRB1*0404/Ii molecules were expressed in SC-2 cells; made in house; host or cells: SC-2 cells

[10] = system: HLA-DRB1*0401-transgenic mice splenocytes; type: in vivo, mouse; design: key to DRB1*0401 mice total SC (T cell response) / DRB1*0401 mice CD4+ (T cell response): −: no binding/T cell response; +/−: weak binding/T cell response; +: intermediate binding/T cell response; ++: strong binding/T cell response
[11] = target: T3, soluble DRB1*0101 molecules; assay: Peptide binding assay, SDS-stability assay; design: key: +++: high binding affinity; ++: moderate binding affinity; +: low binding affinity; −: no binding; details: individual pp65 15mer
[12] = target: T1, soluble DRB1*0401 molecules (DR4); type: binding; design: key: +++: high binding affinity; ++: moderate binding affinity; +: low binding affinity; −: no binding; details: individual pp65 15mer, SDS-stability assay
[13] = target: T2, soluble DRB1*0404 molecules; assay: Peptide binding assay, SDS-stability assay; design: key: +++: high binding affinity; ++: moderate binding affinity; +: low binding affinity; −: no binding; details: individual pp65 15mer
[14] = IFN-gamma ELISpot, enriched CD4+ fraction of splenocytes of HLA-DR4 transgenic mice vaccinated with the longer peptide, ex vivo re-stimulation
[15] = IFN-gamma ELISpot, total splenocytes of HLA-DR4 transgenic mice vaccinated with the longer peptide, ex vivo re-stimulation

Row | Sequence | Binding to DRB1*0401 [5] | Specific CD4+ T cells response described earlier [6] | Binding to DRB1 *0401 [7] | DRB1*0401 mice CD4+ (T cell response) [10, 14] | DRB1*0401 mice total SC (T cell response) [10, 15] | also measured
1 | AGILARNLVPMVATV [Peptide 489] |  |  |  |  |  | Intracellular IFN-γ in CD4 and CD8 positive T-cell compartments [1]: only CD8 mediated IFN-γ secretion
2 | EPDVYYTSAFVFPTK [Peptide 177] | + | capable to evoke specific CD4+ T cells response | + | + | + | Binding to DRB1 *0701 [2]: −; Binding to DRB1 1101 [3]: +; Affinity for several HLA molecules (promiscuity) [4]: affinity for at least two HLA molecules; Binding to DRB1*0404 [8]: −; Binding to DRB1*0101 [9]: ++
3 | KEPDVYYTSAFVFPT [Peptide 176] | +/− |  | +/− | + | + | Binding to DRB1*0101 [11]: −
4 | LKYQEFFWDANDIYR [Peptide 508] | +/− | capable to evoke specific CD4+ T cells response | +/− | ++ | ++ | 
5 | NLKYQEFFWDANDIY [Peptide 507] | +/− | capable to evoke specific CD4+ T cells response | +/− | + | ++ | Binding to DRB1 *0701 [2]: −; Binding to DRB1 1101 [3]: −; Binding to DRB1*0404 [8]: −; Binding to DRB1*0101 [9]: −
6 | PQYSEHPTFTSQYRI [Peptide 361] |  | capable to evoke specific CD4+ T cells response |  |  |  | DRB1*0401 mice CD4+ (T cell response) ([10]; mouse, in vivo): ++; DRB1*0401 mice total SC (T cell response) ([10]; mouse, in vivo, sc): +
7 | QWKEPDVYYTSAFVF [Peptide 174] |  |  | − | +/− | +/− | Binding to DRB1*0101 [11]: −; Binding to DRB1*0401 [12]: −
8 | TDEDSDNEIHNPAVF [Peptide 468] |  |  |  |  |  | Binding to DRB1*0404 [13]: −; Binding to DRB1*0401 [12]: −
